US20120135923A1 (IPSEN PHARMA S A S, published 2012)
Bridge positions count the residues as written; N and C are the ends. Square brackets hold non-standard residues; d marks the D form. 1Nal = N[C@@H](Cc1cccc2ccccc12)C(=O)O; 2Nal = N[C@@H](Cc1ccc2ccccc2c1)C(=O)O; d2Nal = N[C@H](Cc1ccc2ccccc2c1)C(=O)O; Bta = N[C@@H](Cc1csc2ccccc12)C(=O)O; βAla = NCCC(=O)O

B1: Ac-c(Cys-Glu-His-D-2-Nal-Arg-2-Nal-Ala-Cys)-Pro-Pro-Lys-Asp-β-[…]NH2 (peptide)
peptide: Ac-CEH[d2Nal]R[2Nal]ACPPKD[βAla]YGRKRRRQRRR-NH2
modifications: disulfide 1-8
SMILES: CC(=O)N[C@H]1CSSC[C@@H](C(=O)N2CCC[C@H]2C(=O)N2CCC[C@H]2C(=O)N[C@@H](CCCCN)C(=O)N[C@@H](CC(=O)O)C(=O)NCCC(=O)N[C@@H](Cc2ccc(O)cc2)C(=O)NCC(=O)N[C@@H](CCCNC(=N)N)C(=O)N[C@@H](CCCCN)C(=O)N[C@@H](CCCNC(=N)N)C(=O)N[C@@H](CCCNC(=N)N)C(=O)N[C@@H](CCCNC(=N)N)C(=O)N[C@@H](CCC(N)=O)C(=O)N[C@@H](CCCNC(=N)N)C(=O)N[C@@H](CCCNC(=N)N)C(=O)N[C@@H](CCCNC(=N)N)C(N)=O)NC(=O)[C@H](C)NC(=O)[C@H](Cc2ccc3ccccc3c2)NC(=O)[C@H](CCCNC(=N)N)NC(=O)[C@@H](Cc2ccc3ccccc3c2)NC(=O)[C@H](Cc2c[nH]cn2)NC(=O)[C@H](CCC(=O)O)NC1=O
B2: Ac-c(Cys-Glu-His-D-2-Nal-Arg-Bal-Ala-Cys)-Pro-Pro-Lys-Asp-β-[…]NH2 (peptide)
peptide: Ac-CEH[d2Nal]R[Bta]ACPPKD[βAla]YGRRKRRQRRR-NH2
modifications: disulfide 1-8
SMILES: CC(=O)N[C@H]1CSSC[C@@H](C(=O)N2CCC[C@H]2C(=O)N2CCC[C@H]2C(=O)N[C@@H](CCCCN)C(=O)N[C@@H](CC(=O)O)C(=O)NCCC(=O)N[C@@H](Cc2ccc(O)cc2)C(=O)NCC(=O)N[C@@H](CCCNC(=N)N)C(=O)N[C@@H](CCCNC(=N)N)C(=O)N[C@@H](CCCCN)C(=O)N[C@@H](CCCNC(=N)N)C(=O)N[C@@H](CCCNC(=N)N)C(=O)N[C@@H](CCC(N)=O)C(=O)N[C@@H](CCCNC(=N)N)C(=O)N[C@@H](CCCNC(=N)N)C(=O)N[C@@H](CCCNC(=N)N)C(N)=O)NC(=O)[C@H](C)NC(=O)[C@H](Cc2csc3ccccc23)NC(=O)[C@H](CCCNC(=N)N)NC(=O)[C@@H](Cc2ccc3ccccc3c2)NC(=O)[C@H](Cc2c[nH]cn2)NC(=O)[C@H](CCC(=O)O)NC1=O
B3: Ac-c(Cys-Glu-His-D-2-Nal-Arg-Bal-Ala-Cys)-Pro-Pro-Lys-Asp-β-[…]NH2 (peptide)
peptide: Ac-CEH[d2Nal]R[Bta]ACPPKD[βAla]YGRRRRRQRRR-NH2
modifications: disulfide 1-8
SMILES: CC(=O)N[C@H]1CSSC[C@@H](C(=O)N2CCC[C@H]2C(=O)N2CCC[C@H]2C(=O)N[C@@H](CCCCN)C(=O)N[C@@H](CC(=O)O)C(=O)NCCC(=O)N[C@@H](Cc2ccc(O)cc2)C(=O)NCC(=O)N[C@@H](CCCNC(=N)N)C(=O)N[C@@H](CCCNC(=N)N)C(=O)N[C@@H](CCCNC(=N)N)C(=O)N[C@@H](CCCNC(=N)N)C(=O)N[C@@H](CCCNC(=N)N)C(=O)N[C@@H](CCC(N)=O)C(=O)N[C@@H](CCCNC(=N)N)C(=O)N[C@@H](CCCNC(=N)N)C(=O)N[C@@H](CCCNC(=N)N)C(N)=O)NC(=O)[C@H](C)NC(=O)[C@H](Cc2csc3ccccc23)NC(=O)[C@H](CCCNC(=N)N)NC(=O)[C@@H](Cc2ccc3ccccc3c2)NC(=O)[C@H](Cc2c[nH]cn2)NC(=O)[C@H](CCC(=O)O)NC1=O
B4: Ac-c(Cys-Glu-His-D-2-Nal-Arg-2-Nal-Ala-Cys)-Pro-Pro-Lys-Asp-β-[…]NH2 (peptide)
peptide: Ac-CEH[d2Nal]R[2Nal]ACPPKD[βAla]RRKRRQRRR-NH2
modifications: disulfide 1-8
SMILES: CC(=O)N[C@H]1CSSC[C@@H](C(=O)N2CCC[C@H]2C(=O)N2CCC[C@H]2C(=O)N[C@@H](CCCCN)C(=O)N[C@@H](CC(=O)O)C(=O)NCCC(=O)N[C@@H](CCCNC(=N)N)C(=O)N[C@@H](CCCNC(=N)N)C(=O)N[C@@H](CCCCN)C(=O)N[C@@H](CCCNC(=N)N)C(=O)N[C@@H](CCCNC(=N)N)C(=O)N[C@@H](CCC(N)=O)C(=O)N[C@@H](CCCNC(=N)N)C(=O)N[C@@H](CCCNC(=N)N)C(=O)N[C@@H](CCCNC(=N)N)C(N)=O)NC(=O)[C@H](C)NC(=O)[C@H](Cc2ccc3ccccc3c2)NC(=O)[C@H](CCCNC(=N)N)NC(=O)[C@@H](Cc2ccc3ccccc3c2)NC(=O)[C@H](Cc2c[nH]cn2)NC(=O)[C@H](CCC(=O)O)NC1=O
B5: Ac-c(Cys-Glu-His-D-2-Nal-Arg-1-Nal-Ala-Cys)-Pro-Pro-Arg-Asp-β-[…]NH2 (peptide)
peptide: Ac-CEH[d2Nal]R[1Nal]ACPPRD[βAla]RRRRRQRRR-NH2
modifications: disulfide 1-8
SMILES: CC(=O)N[C@H]1CSSC[C@@H](C(=O)N2CCC[C@H]2C(=O)N2CCC[C@H]2C(=O)N[C@@H](CCCNC(=N)N)C(=O)N[C@@H](CC(=O)O)C(=O)NCCC(=O)N[C@@H](CCCNC(=N)N)C(=O)N[C@@H](CCCNC(=N)N)C(=O)N[C@@H](CCCNC(=N)N)C(=O)N[C@@H](CCCNC(=N)N)C(=O)N[C@@H](CCCNC(=N)N)C(=O)N[C@@H](CCC(N)=O)C(=O)N[C@@H](CCCNC(=N)N)C(=O)N[C@@H](CCCNC(=N)N)C(=O)N[C@@H](CCCNC(=N)N)C(N)=O)NC(=O)[C@H](C)NC(=O)[C@H](Cc2cccc3ccccc23)NC(=O)[C@H](CCCNC(=N)N)NC(=O)[C@@H](Cc2ccc3ccccc3c2)NC(=O)[C@H](Cc2c[nH]cn2)NC(=O)[C@H](CCC(=O)O)NC1=O
B6: Ac-c(Cys-Glu-His-D-2-Nal-Arg-2-Nal-Ala-Cys)-Pro-Pro-Lys-Asp-β-[…]NH2 (peptide)
peptide: Ac-CEH[d2Nal]R[2Nal]ACPPKD[βAla]RKRRRQRRR-NH2
modifications: disulfide 1-8
SMILES: CC(=O)N[C@H]1CSSC[C@@H](C(=O)N2CCC[C@H]2C(=O)N2CCC[C@H]2C(=O)N[C@@H](CCCCN)C(=O)N[C@@H](CC(=O)O)C(=O)NCCC(=O)N[C@@H](CCCNC(=N)N)C(=O)N[C@@H](CCCCN)C(=O)N[C@@H](CCCNC(=N)N)C(=O)N[C@@H](CCCNC(=N)N)C(=O)N[C@@H](CCCNC(=N)N)C(=O)N[C@@H](CCC(N)=O)C(=O)N[C@@H](CCCNC(=N)N)C(=O)N[C@@H](CCCNC(=N)N)C(=O)N[C@@H](CCCNC(=N)N)C(N)=O)NC(=O)[C@H](C)NC(=O)[C@H](Cc2ccc3ccccc3c2)NC(=O)[C@H](CCCNC(=N)N)NC(=O)[C@@H](Cc2ccc3ccccc3c2)NC(=O)[C@H](Cc2c[nH]cn2)NC(=O)[C@H](CCC(=O)O)NC1=O
B7: Ac-c(Cys-Glu-His-D-2-Nal-Arg-1-Nal-Ala-Cys)-Pro-Pro-Lys-Asp-β-[…]NH2 (peptide)
peptide: Ac-CEH[d2Nal]R[1Nal]ACPPKD[βAla]RRKRRQRRR-NH2
modifications: disulfide 1-8
SMILES: CC(=O)N[C@H]1CSSC[C@@H](C(=O)N2CCC[C@H]2C(=O)N2CCC[C@H]2C(=O)N[C@@H](CCCCN)C(=O)N[C@@H](CC(=O)O)C(=O)NCCC(=O)N[C@@H](CCCNC(=N)N)C(=O)N[C@@H](CCCNC(=N)N)C(=O)N[C@@H](CCCCN)C(=O)N[C@@H](CCCNC(=N)N)C(=O)N[C@@H](CCCNC(=N)N)C(=O)N[C@@H](CCC(N)=O)C(=O)N[C@@H](CCCNC(=N)N)C(=O)N[C@@H](CCCNC(=N)N)C(=O)N[C@@H](CCCNC(=N)N)C(N)=O)NC(=O)[C@H](C)NC(=O)[C@H](Cc2cccc3ccccc23)NC(=O)[C@H](CCCNC(=N)N)NC(=O)[C@@H](Cc2ccc3ccccc3c2)NC(=O)[C@H](Cc2c[nH]cn2)NC(=O)[C@H](CCC(=O)O)NC1=O

What was measured:
Assay in all cases: [125I]-NDP-α-MSH competition, membranes
[1] = target: T1, human melanocortin receptor subtype 3 (hMC3-R) (human, UniProt P41968 1-323)
T1 construct: whole, on cells; membranes of CHO-K1 cells
Protocol: (§1) Cellular membranes used for the in vitro receptor binding assays were obtained from transgenic CHO-K1 cells stably expressing hMC-R receptor subtypes 1, 3, 4 or 5. […] The pellets were resuspended in the same buffer and centrifuged at 50,000 g for 10 minutes at approximately 4° C. The washed pellets containing the cellular membranes were stored at approximately −80° C.
(§2) Competitive inhibition of [¹²⁵I](Tyr²)-(Nle⁴-D-Phe⁷)α-MSH ([¹²⁵I]-NDP-α-MSH, Amersham Biosciences®) binding was carried out in polypropylene 96 well plates. Cell membranes (1-10 μg protein/well) prepared as described above were incubated in 50 mM Tris-HCl at pH 7.4 containing 0.2% bovine serum albumin (BSA), 5 mM MgCl₂, 1 mM CaCl₂ and 0.1 mg/mL bacitracin, with increasing concentrations of the test compound and 0.1-0.3 nM […] for approximately 90-120 minutes at approximately 37° C. Bound [¹²⁵I]-NDP-α-MSH ligand was separated from free [¹²⁵I]-NDP-α-MSH by filtration through GF/C glass fiber filter plates (Unifilter®; Packard) presoaked with 0.1% (w/v) polyethylenimine (PEI), using a Packard Filtermate® harvester. Filters were washed three times with 50 mM Tris-HCl at pH 7.4 at a temperature of approximately 0-4° C. and then assayed for radioactivity using a Packard Topcount® scintillation counter. Binding data were analyzed by computer-assisted non-linear regression analysis (XL fit; IDBS).

[2] = target: T2, human melanocortin receptor subtype 1 (hMC1-R) (human, UniProt Q01726 1-317)
T2 construct: whole, on cells; membranes of CHO-K1 cells
Protocol: as §1, §2

[3] = target: T3, human melanocortin receptor subtype 5 (hMC5-R) (human, UniProt P33032 1-325)
T3 construct: whole, on cells; membranes of CHO-K1 cells
Protocol: as §1, §2

[4] = target: T4, human melanocortin receptor subtype 4 (hMC4-R) (human, UniProt P32245 1-332)
T4 construct: whole, on cells; membranes of CHO-K1 cells
Protocol: as §1, §2

T2 sequence (Q01726 whole entry): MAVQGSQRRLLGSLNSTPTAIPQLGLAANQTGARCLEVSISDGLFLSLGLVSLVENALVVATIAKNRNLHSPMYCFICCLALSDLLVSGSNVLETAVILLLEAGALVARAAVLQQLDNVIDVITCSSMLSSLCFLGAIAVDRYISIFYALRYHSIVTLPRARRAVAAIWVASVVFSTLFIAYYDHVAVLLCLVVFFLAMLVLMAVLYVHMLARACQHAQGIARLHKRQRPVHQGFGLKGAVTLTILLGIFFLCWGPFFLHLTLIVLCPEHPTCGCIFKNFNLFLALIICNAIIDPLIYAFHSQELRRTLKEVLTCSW
T4 sequence (P32245 whole entry): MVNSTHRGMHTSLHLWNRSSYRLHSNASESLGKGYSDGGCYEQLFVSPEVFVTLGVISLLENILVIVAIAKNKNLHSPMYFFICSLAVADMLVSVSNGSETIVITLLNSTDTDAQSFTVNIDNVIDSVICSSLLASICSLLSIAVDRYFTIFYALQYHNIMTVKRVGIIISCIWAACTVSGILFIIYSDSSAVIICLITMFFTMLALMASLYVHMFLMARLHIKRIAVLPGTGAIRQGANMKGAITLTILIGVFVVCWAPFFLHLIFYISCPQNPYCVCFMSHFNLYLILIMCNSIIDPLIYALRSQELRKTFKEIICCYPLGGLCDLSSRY
T1 sequence (P41968 whole entry): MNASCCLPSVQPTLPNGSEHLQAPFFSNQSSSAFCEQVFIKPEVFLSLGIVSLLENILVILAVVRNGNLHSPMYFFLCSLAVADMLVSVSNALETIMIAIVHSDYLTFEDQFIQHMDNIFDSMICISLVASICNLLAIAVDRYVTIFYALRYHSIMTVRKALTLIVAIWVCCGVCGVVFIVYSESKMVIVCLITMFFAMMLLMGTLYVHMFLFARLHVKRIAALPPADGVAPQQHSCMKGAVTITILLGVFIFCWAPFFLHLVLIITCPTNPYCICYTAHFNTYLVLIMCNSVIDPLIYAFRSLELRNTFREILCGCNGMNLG
T3 sequence (P33032 whole entry): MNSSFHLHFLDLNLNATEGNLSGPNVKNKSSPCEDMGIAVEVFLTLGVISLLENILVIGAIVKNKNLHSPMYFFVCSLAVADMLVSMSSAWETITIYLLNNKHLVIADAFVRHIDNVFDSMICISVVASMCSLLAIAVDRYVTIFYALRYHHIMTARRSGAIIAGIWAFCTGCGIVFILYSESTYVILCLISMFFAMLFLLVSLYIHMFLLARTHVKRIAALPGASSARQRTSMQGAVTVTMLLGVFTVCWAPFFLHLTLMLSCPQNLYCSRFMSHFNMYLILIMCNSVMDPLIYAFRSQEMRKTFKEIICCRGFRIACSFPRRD

Binder	Ki [1] [nM]	Ki [2] [nM]	Ki [3] [nM]	Ki [4] [nM]
B1	0.604	1.49	3.13	0.865
B2	1.57	2.24	16.4	0.437
B3	4.05	3.07	31.1	0.498
Ac-CEH[d2Nal]R[Bta]ACPPKD[βAla]RRRRRQRRR-NH2 (disulfide 1-8)	4.97	3.86	38.3	0.192
B4	0.975	3.41	11.3	0.549
B5	9.07	2.93	59	0.293
B6	0.62	2.25	2.77	0.303
B7	5.68	4.62	45.3	0.505
